One block for each molecule: values may come before it. Ends that are not written are not given here.
Columns and labels:
Type in all cases: cell-based
CXCR1 = target: T1, CXCR1 (Homo sapiens, UniProt P25024); test: Receptor-HIT BRET, β-arr2/Venus with RAGE/Rluc8 and CXCR1; settings: in the presence of CXCR1
T1 construct: expressed in transfected cells; host or cells: HEK293FT, transient
Description: (§1) Bioluminescence Resonance Energy Transfer (BRET)
(§2) BRET is an established technology for studying protein-protein proximity in live cells, particularly involving GPCRs (Pfleger and Eidne, 2006). One protein of interest was linked to a bioluminescent donor enzyme, Rluc8, a variant of Renilla luciferase, and a second linked to an acceptor fluorophore, Venus, a variant of green fluorescent protein. If in close proximity (<10 nm), energy resulting from the rapid oxidation of a cell-permeable coelenterazine substrate by the donor can transfer to the acceptor, which in turn fluoresces at a longer characteristic wavelength.
(§3) Plasmids were transiently co-expressed in human embryonic kidney (HEK) 293FT cells and BRET measurements taken at 37° C. using a POLARstar Omega or LUMIstar plate reader (BMG Labtech, Mornington, Victoria, Australia) with 460-490 nm (‘donor emission’) and 520-550 nm (‘acceptor emission’) filters, or a VICTOR Light plate reader (Perkin Elmer, Glen Waverley, Victoria, Australia) with 400-475 nm (‘donor emission’) and 520-540 nm (‘acceptor emission’) filters, or a CLARIOstar plate reader (BMG Labtech, Mornington, Victoria, Australia) with 420-480 nm (‘donor emission’) and 520-620 nm (‘acceptor emission’) filters. […]
(§4) For BRET kinetic assays, the final pre-treatment reading is presented at the zero time point (time of ligand/vehicle addition). […]

CXCR2 = target: T2, CXCR2 (Homo sapiens, UniProt P25025); test: Receptor-HIT BRET, β-arr2/Venus with RAGE/Rluc8 and CXCR2; settings: in the presence of CXCR2
T2 construct: expressed in transfected cells; host or cells: HEK293FT, transient
T2 sequence (P25025 whole entry): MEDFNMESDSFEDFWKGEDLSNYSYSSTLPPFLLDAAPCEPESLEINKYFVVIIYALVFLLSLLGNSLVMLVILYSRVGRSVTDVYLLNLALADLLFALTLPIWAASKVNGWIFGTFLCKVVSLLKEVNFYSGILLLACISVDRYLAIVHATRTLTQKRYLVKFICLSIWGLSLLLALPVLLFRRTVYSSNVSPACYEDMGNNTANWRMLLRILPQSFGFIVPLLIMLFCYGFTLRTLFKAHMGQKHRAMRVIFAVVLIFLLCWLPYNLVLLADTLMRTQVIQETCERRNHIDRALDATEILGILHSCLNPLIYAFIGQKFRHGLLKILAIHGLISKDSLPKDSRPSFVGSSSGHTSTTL
T2 sequence (P32121 whole entry partner): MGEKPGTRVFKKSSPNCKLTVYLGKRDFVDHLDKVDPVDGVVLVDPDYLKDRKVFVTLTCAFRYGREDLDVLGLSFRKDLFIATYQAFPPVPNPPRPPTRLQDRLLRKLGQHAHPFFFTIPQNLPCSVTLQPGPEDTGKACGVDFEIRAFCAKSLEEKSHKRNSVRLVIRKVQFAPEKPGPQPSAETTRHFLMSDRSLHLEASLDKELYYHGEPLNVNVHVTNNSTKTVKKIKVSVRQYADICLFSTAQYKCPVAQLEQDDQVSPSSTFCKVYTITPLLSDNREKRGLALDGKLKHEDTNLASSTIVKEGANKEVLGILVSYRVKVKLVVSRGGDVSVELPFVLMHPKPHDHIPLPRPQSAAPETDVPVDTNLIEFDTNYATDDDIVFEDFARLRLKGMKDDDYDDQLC
Description: as §1, §2, §3, §4

CXCR3 = target: T3, CXCR3 (Homo sapiens, UniProt P49682); test: Receptor-HIT BRET, β-arr2/Venus with RAGE/Rluc8 and CXCR3; settings: in the presence of CXCR3
T3 construct: expressed in transfected cells; host or cells: HEK293FT, transient
T3 sequence (P49682 whole entry, species assumed): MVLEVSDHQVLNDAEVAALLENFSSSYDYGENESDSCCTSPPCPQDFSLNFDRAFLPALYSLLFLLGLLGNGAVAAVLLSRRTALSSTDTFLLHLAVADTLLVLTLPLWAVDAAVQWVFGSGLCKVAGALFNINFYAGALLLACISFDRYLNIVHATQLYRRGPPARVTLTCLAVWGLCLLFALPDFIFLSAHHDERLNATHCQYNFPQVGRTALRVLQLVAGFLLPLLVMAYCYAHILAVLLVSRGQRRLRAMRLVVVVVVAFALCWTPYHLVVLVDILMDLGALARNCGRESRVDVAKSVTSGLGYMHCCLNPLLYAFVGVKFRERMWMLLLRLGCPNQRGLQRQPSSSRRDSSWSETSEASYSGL
T3 sequence (P32121 whole entry partner, species assumed): as the sequence (P32121 whole entry partner) above
Description: as §1, §2, §3, §4

CXCR4 = target: T4, CXCR4 (Homo sapiens, UniProt P61073); test: Receptor-HIT BRET, β-arr2/Venus with RAGE/Rluc8 and CXCR4; settings: in the presence of CXCR4
T4 construct: expressed in transfected cells; host or cells: HEK293FT, transient
T4 sequence (P61073 whole entry): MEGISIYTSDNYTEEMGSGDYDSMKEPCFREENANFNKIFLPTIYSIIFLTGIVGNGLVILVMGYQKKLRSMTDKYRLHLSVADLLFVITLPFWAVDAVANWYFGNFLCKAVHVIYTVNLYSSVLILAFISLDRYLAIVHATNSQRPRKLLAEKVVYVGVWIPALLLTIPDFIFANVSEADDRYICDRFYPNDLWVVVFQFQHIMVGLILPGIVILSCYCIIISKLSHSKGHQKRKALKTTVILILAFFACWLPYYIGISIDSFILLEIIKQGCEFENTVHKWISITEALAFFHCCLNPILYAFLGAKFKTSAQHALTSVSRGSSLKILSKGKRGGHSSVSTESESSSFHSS
T4 sequence (P32121 whole entry partner): as the sequence (P32121 whole entry partner) above
Description: as §1, §2, §3, §4

[1] = test system: Human microvascular endothelial cells (HMEC); test: Ang II-induced pro-inflammatory signalling (ICAM-1, MCP-1 RT-PCR) in HMEC; settings: overexpression of construct
Protocol: Primary aortic endothelial cells (PMAEC) were isolated from the aortae of (wild-type) C57bl6 mice and AGER KO mice and cultured in Dulbecco's modified Eagle's medium (DMEM)/F12 endothelial cell growth supplement (ECGS) supplemented media. Chinese Hamster Ovary (CHO) cells were cultured using F12 media (10% FCS with 2 mM glutamine). Human microvascular endothelial cells (HMEC) were cultured in MCDB 131 medium (10% FCS with 10 mM glutamine, EGF and hydrocortisone).
Cellular Expression of Pro-Inflammatory Markers and Mediators by Quantitative Real-Time PCR
After 2 hours of exposure to Ang II (1 μM) or the RAGE ligand, S100A8/A9 (5 ng/ml) cells were placed in Trizol, mRNA extracted and cDNA synthesized. Changes in the gene expression of the NFκB subunit, p65 (RelA) or NFκB-activated target genes (e.g ICAM-1, VCAM-1) were estimated by quantitative real-time RT-PCR, performed using the TaqMan system based on real-time detection of accumulated fluorescence (ABI Prism 7700, Perkin-Elmer Inc, PE Biosystems, Foster City, CA, USA). Gene expression was normalized to 18S mRNA and reported as fold change compared to the level of expression in untreated control mice/cells, which were given an arbitrary value of 1.

AT1 = target: T5, AT1 (Homo sapiens, UniProt P30556); test: BRET between mCherry/RAGE338-361 and luciferase-tagged AT1; parameters: expressed in transfected cells; host or cells: HEK293FT, transient
T5 sequence (P30556 1-359): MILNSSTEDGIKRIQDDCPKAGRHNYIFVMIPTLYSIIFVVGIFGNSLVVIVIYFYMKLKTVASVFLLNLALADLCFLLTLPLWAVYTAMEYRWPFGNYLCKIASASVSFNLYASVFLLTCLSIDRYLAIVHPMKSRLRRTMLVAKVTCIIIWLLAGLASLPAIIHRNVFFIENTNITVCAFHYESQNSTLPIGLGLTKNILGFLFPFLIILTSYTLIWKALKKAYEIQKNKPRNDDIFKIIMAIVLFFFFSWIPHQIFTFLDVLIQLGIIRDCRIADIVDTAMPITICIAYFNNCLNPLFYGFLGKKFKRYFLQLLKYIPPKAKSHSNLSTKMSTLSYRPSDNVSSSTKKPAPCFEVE
Protocol: FIG. 21A. BRET between mCherry/RAGE338-361 and Nluc/AT1 is increased with Ang II. Data are presented as mean±SEM; n=3-5.
FIG. 21D. Lack of Ang II-induced BRET signal between AT1/Rluc8 and mCherry/RAGE338-361 where cells were transfected with 50 ng AT1/Rluc8 cDNA, 300 ng RAGE/Venus cDNA and 0, 50, 100, 200, 300 or 400 ng of mCherry/RAGE338-361 CDNA or pcDNA3 control plasmid as indicated. Data are presented as mean±SEM; n=3-4. Filters: mCherry 650 nm/Rluc8 450 nm.
as §1
BRET is an established technology for studying protein-protein proximity in live cells, particularly involving GPCRs (Pfleger and Eidne, 2006). […]
as §3

CCR10 = target: T6, CCR10 (Homo sapiens, UniProt P46092); test: Receptor-HIT BRET, β-arr2/Venus with RAGE/Rluc8 and CCR10; settings: in the presence of CCR10
T6 construct: expressed in transfected cells; host or cells: HEK293FT, transient
T6 sequence (P46092 whole entry): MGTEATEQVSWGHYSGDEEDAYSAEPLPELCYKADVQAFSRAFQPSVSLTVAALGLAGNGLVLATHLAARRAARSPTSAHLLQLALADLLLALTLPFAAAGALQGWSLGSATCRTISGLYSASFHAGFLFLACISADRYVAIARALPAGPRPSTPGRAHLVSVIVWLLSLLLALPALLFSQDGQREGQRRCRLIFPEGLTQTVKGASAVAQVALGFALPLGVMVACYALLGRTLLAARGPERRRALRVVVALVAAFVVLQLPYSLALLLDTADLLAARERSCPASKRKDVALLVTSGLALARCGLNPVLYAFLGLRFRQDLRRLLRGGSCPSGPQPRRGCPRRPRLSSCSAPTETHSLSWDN
T6 sequence (P32121 whole entry partner): as the sequence (P32121 whole entry partner) above
Description: as §1, §2, §3, §4

CXCR6 = target: T7, CXCR6 (Homo sapiens, UniProt O00574); test: Receptor-HIT BRET, β-arr2/Venus with RAGE/Rluc8 and CXCR6; settings: in the presence of CXCR6
T7 construct: expressed in transfected cells; host or cells: HEK293FT, transient
T7 sequence (O00574 whole entry): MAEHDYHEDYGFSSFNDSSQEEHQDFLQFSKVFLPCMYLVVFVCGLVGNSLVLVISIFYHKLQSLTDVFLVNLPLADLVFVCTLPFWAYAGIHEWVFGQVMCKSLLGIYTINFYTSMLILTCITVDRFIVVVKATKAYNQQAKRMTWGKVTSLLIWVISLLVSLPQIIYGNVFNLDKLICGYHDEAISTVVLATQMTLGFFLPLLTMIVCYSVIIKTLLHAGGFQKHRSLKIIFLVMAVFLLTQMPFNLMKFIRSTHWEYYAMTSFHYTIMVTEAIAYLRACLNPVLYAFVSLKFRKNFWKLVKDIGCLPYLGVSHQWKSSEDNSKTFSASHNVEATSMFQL
T7 sequence (P32121 whole entry partner): as the sequence (P32121 whole entry partner) above
Description: as §1, §2, §3, §4

T1 sequence (P25024 whole entry, species assumed): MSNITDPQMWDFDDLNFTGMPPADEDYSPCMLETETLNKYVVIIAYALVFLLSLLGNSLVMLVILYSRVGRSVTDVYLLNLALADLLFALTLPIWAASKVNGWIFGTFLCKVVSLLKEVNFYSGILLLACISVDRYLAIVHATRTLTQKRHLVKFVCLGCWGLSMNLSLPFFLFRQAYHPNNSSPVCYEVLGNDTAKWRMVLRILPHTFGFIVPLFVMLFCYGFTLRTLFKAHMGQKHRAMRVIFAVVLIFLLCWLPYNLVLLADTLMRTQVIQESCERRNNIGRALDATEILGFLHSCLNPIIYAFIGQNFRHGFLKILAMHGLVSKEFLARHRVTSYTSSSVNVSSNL
T1 sequence (P32121 whole entry partner, species assumed): as the sequence (P32121 whole entry partner) above

Molecule: CXCL11: chemokine ligand used to activate CXCR3
recruitment of β-arr2/Venus proximal to RAGE/Rluc8 (CXCR3): Lack of

Molecule: mCherry/RAGE338-361: mCherry fusion of RAGE338-361 (LGTLALALGILGGLGTAALLIGVI; also: mCherry fusion)
inhibition of Ang II-induced ICAM-1 expression [1]: inhibited
Ang II-induced BRET signal with AT1/Rluc8 (AT1; cells also transfected with RAGE/Venus cDNA, filters mCherry 650 nm/Rluc8 450 nm): Lack of
BRET with Nluc/AT1 (AT1; with Ang II): increased

B2: CXCL16: chemokine ligand used to activate CXCR6 (protein)
chain: NEGSVTGSCYCGKRISSDSPPSVQFMNRLRKHLRAYHRCLYYTRFQLLSWSVCGGNKDPWVQELMSCLDLKECGHAYSGIVAHQKHLLP
recruitment of β-arr2/Venus proximal to RAGE/Rluc8 (CXCR6): recruitment

Second part, the molecule after the results:

recruitment of β-arr2/Venus proximal to RAGE/Rluc8 (CXCR1): Weak
recruitment of β-arr2/Venus proximal to RAGE/Rluc8 (CXCR2): recruitment
Molecule: CXCL8: chemokine ligand used to activate CXCR1 and CXCR2

β-arr2/Venus proximity to RAGE/Rluc8 (CXCR4): reduction
Molecule: CXCL 12: chemokine ligand used to activate CXCR4

recruitment of β-arr2/Venus proximal to RAGE/Rluc8 (CCR10): Lack of
B1: CCL27: chemokine ligand used to activate CCR10 (protein)
chain: FLLPPSTACCTQLYRKPLSDKLLRKVIQVELQEADGDCHLQAFVLHLAQRSICIHPQNPSLSQWFEHQERKLHGTLPKLNFGMLRKMG

Reference: patent publication US12060408B2, “Screening assays, modulators and modulation of activation of Receptor for Advanced Glycation End-products (RAGE)” (Monash University, priority 2017, dated 2024)
